Test results published in the DeepSol protein solubility set.

Assay: soluble on expression in E. coli; label from the status in PepcDB or PDB records

| Sequence | soluble on expression in E. coli |
| --- | --- |
| MGSDKIHHHHHHMAGPGCMLMFNRAAKDDATPRMRAGVAVNTGHSLAYQHVIEPSAGYQAKLEAELNPENGRRLSASLIAQILNLGSTSDPDIPAASQLAMAILKTIEAFQISREREPGPEHAPLDVLPLALRSPDADERAHEVCQRIAEHARALWQRMINERSGIPITHDTYLKILQLREPYFSFDFWILDEYQDTTPVVDELVNQQEGQKLYIGDPYQAIYSWRGAINALAGPIDRGLPVHYLTDSFRYNHQIAGMATLILRALGEPVPVRGQPRNFIHRRADDNHTIICRTNLSILVRAGELIVRGSPVFVDGGIPKSTYQRIESALALFQGRPNDVRISTLRQMGSWTAFVDYARGLGERADDMMNLIALVEQYQSQLPVLIDTLKRRLPYRNPRKPGQTTLITAHRSKGRQFAHVELDPDIGLPGDLMIKIQNQAPLQPKERESLHLLYVALTRAELSLELPKRIKENLKLLHGWFNRGTDTAETFTAKTTIPLPKAHAQTAQRARTEAFIRAHRRTD | not soluble |
| MSLDVLSVSEINAQIKALLEATFLQVRVQGEVSNLTIHKVSGHAYFSLKDSQSVIKCVLFKGNANRLKFALKEGQEVVVFGGISVYVPRGDYQINCFEIEPKDIGSLTLALEQLKEKLRLKGYFDEENKLPKPHFPKRVAVITSQNSAAWADMKKIASKRWPMCELVCINTLMQGEGCVQSVVESIVYADSFHDTKNAFDAIVVARGGGSMEDLYSFNDEKIADALYLAKTFSMSAIGHESDFLLSDLVADLRASTPSNAMEILLPSSDEWLQRLDGFNVKLHRSFKTLLHQKKAHLEHLVASLKRLSFENKHHLNALKLEKLKIALENKTLEFLRFKKTLLEKISTQTLTSPFLQTKTERLNRLENALKLAHANLKLPQFGALVSKNNQAIELEALKRGDKIELSNEKTRASAEILSVDRVEGHHHHHH | soluble |
| MSLDKRLFLDPDTAIERLQRLQQALEMGVSSLMALVTTDWRCYGYMERHINEIRTAVDKVELFLKEYLHFVKGAVANAACLPELILHNKMKRELQRVEDSHQILSQTSHDLNECSWSLNILAINKPQNKCDDLDRFVMVAKTVPDDAKQLTTTINTNAEALFRPGPGSLHLKNGPESIMNSTEYPHGGSQGQLLHPGDHKAQAHNKALPPGLSKEQAPDCSSSDGSERSWMDDYDYVHLQGKEEFERQQKELLEKENIMKQNKMQLEHHQLSQFQLLEQEITKPVENDISKWKPSQSLPTTNSGVSAQDRQLLCFYYDQCETHFISLLNAIDALFSCVSSAQPPRIFVAHSKFVILSAHKLVFIGDTLTRQVTAQDIRNKVMNSSNQLCEQLKTIVMATKMAALHYPSTTALQEMVHQVTDLSRNAQLFKRSLLEMATEGHHHHHH | soluble |
| MAKRKKKEVFDWEDEDQEEIIWVSKSEIKRDAEDLKQLGEKIVNLTKANLAKIPLDESLLDAIELAQRLQKEARRRQLQYIGKLFRGIDVEPIREALDKIENKHNQQQAMLHKIEKVRDELVEKGDVALTDLLNDYPNGDRQQLRNLIRSAQKELEQNKPSKAYREIYQMLKVLMLED | not soluble |
| AIPLTLFYKFTYPIIVAFNKSTDLVLKLFGIKQVDEHEEAHTDEEIRMLVEESYKHGLIDKTELTFVDNVFDFSEKTVKEIMVPRTDMKCIFVEDSFDDIVGVTIDEHFTRYPVCEESKDNIIGLIHIKDLYKLKINKEDEKIESIIREIKFVPESMSISELFRMFQKERMQMAIVIDEYGGTFGLVTIEDILEEIVGEIQ | not soluble |
| MHTAEFLETEPTEISSVLAGGYNHPLLRQWQSERQLTKNMLIFPLFISDNPDDFTEIDSLPNINRIGVNRLKDYLKPLVAKGLRSVILFGVPLIPGTKDPVGTAADDPAGPVIQGIKFIREYFPELYIICDVCLCEYTSHGHCGVLYDDGTINRERSVSRLAAVAVNYAKAGAHCVAPSDMIDGRIRDIKRGLINANLAHKTFVLSYAAKFSGNLYGPFRDAACSAPSNGDRKCYQLPPAGRGLARRALERDMSEGADGIIVKPSTFYLDIMRDASEICKDLPICAYHVSGEYAMLHAAAEKGVVDLKTIAFESHQGFLRAGARLIITYLAPEFLDWLDEEN | soluble |
| MPLRVDTLTWLSTQAAPGRVMVWPAVRPGICPGPDVWRIPLGPLPHEFRGWIAPCRPRLGASEAGDWLRRPSEGALPGPYIALRSIPKLPPPEDISGILKELQQLAKELRQKRLSLGYSQADVGIAVGALFGKVLSQTTICRFEAQQLSVANMWKLRPLLKKWLKEVEAENLLGLCKMEMILQQSGKWRRASRERRIGNSLEKFFQRCPKPTPQQISHIAGCLQLQKDVVRVWFYNRSKMGSRPTNDASPREIVGTAGPPCPGAPVCFHLGLGLPVDIPHYTRLYSAGVAHSSAPATTLGLLRF | soluble |
